In data set [1] the test system is eIF3 (eukaryotic initiation factor 3 complex). In words: EMSA.
Data set [2] has as its target HCV mIRES RNA. In words: FRET titration of fluorescein-labelled RNA with Dabsyl-labelled peptides. The data set is classed as binding. The following applies: HCV loopIII RNA 10 nM, pH7.4, 110 mM KCl. The source says:
(§1) Oligoribonucleotides with a fluorescein attached to the 5′ end of the molecule (shown in FIG. 6a) were synthesised using conventional oligoribonucleotide techniques. A 19 mer (FIG. 6b) was used for control purposes
(§2) Fluoresein-labeled RNA was titrated with Dabsyl-labelled peptides. The donor (fluorescein) fluoresence was excited at 490 nm. In the presence of peptide, binding leads to a quenching of fluorescence by the non-fluorescent acceptor dye Dabsyl. The quenching curves allow the determination of binding affinities. Fluorescein-labelled RNA containing the mIRES was titrated with various peptides.
(§3) FIG. 7 illustrates binding curves for RNA containing the mIRES titrated with various peptides. Experimental conditions: Fam-labelled RNA (10 nM) was titrated with Dabsyl-labelled peptide in 50 mM Tris/Cl, pH7.4, 110 mM KCl, 5ug/ml BSA, 0.01% Triton X-100, 1%DMSO. Fluorescence (excitation 490 nm/emission at 535 nm) was determined in 96-well plates using a Fluorescence plate reader. The assay volume was 100 μl.
(§4) Dissociation constants were determined by fitting a binding isotherm (1-site-binding) to the titration data using the equation
(§5) Y=((Fmax−Fmin)−((Fmax−Fmin)*c/(Kd+c)))+Fmin

Data set [3] addresses 19mer control RNA. In words: FRET titration of fluorescein-labelled control RNA with Dabsyl-labelled peptides. The data set is classed as binding.
From the text: as §1, §2, §3, §4, §5

The target in data set [4] is IIIB-Dabcyl RNA. The experiment in a line: Inhibition of paromomycin-TAMRA binding to IIIB-Dabcyl RNA (FRET). Details: species or system HCV. Here is the method: Measurements were made in a 2 mL cuvette. Increasing amounts of IIIB-Dabcyl RNA (corresponding to the amounts shown in the figure) were added to a solution of 10 nM paromomycin-TAMRA in the presence of 50 mM Tris.HCl pH7.5, 80 mM KCl. For each titration point emission spectra were acquired using a fixed wavelength of 552 nm with the excitation slits set to 5 nm and the emission slits set to 10 nm. Emission spectra were acquired over the range 570-600 nm. Two binding curves are presented, the first in the absence of a test molecule (FIG. 8a) and the second in the presence of 10 μM neomycin (FIG. 8b).

Data set [5] deals with Dabsyl peptide with KKKKK core (synthetic). Conditions: FRET quenching.
In data set [6] the test system is Dabsyl peptide with KKKQR core (synthetic). The following applies: FRET quenching.
In data set [7] the test system is Dabsyl peptide with KKQKR core (synthetic). The following applies: FRET quenching.
Data set [8] relates to Dabsyl peptide with KKQRR core (synthetic). Conditions: FRET quenching.
The test system of data set [9] is Dabsyl peptide with KKRQR core (synthetic). Conditions: FRET quenching.
The subject of data set [10] is Dabsyl peptide with QQQQQ core (synthetic). The following applies: FRET quenching, R2 N/A.
The subject of data set [11] is Dabsyl peptide with RRRRR core (synthetic). Conditions: FRET quenching, 50 mM Tris pH 7.4, 110 mM KCl.
The mark [12] stands for this setting: relative to DIII, no complex formed.

The source of these data is patent US20020127543A1, “Methods and compositions utilizing hepatitis C virus molecules” (priority 1999, published 2002).

Like-named read-outs stand apart in the source and are kept apart here. Where only a bound is given, the exact number is not on record here.

Turning to HCV IRES Domain II (DII), the binding signal in data set [1] (setting [12]) is 0.5%.
With KKQRR, the equilibrium dissociation constant (Kd) in [2] is 41 nM; in data set [3], more than 500 nM.
The like results for KKQKR were, in that order, more than 500 nM and more than 500 nM.
Take Neomycin: in data set [4] (10 nM paromomycin-TAMRA, 10 μM neomycin), the affinity corresponds to a Ki of 520 nM. Moreover, the “Inhibition of paromomycin-TAMRA binding to IIIB-Dabcyl RNA (in words)” value in data set [4] (10 uM) is listed as “inhibits paromomycin-TAMRA binding to IIIB-Dabcyl RNA”.
For the substance HCV IRES Domain III (DIII), the binding signal in [1] (reference, 60 mM KCl, 3 mM MgCl2, 200 nM tRNA, on ice, relative affinity by unlabelled RNA competition) was 100%.
Turning to tRNA, the binding signal in [1] (setting [12]) is 0.1%.
Take KKKKK: the Kd in data set [2] was 49 nM; in [3], more than 500 nM.
The like results for KKKQR were, in that order, 90 nM and more than 500 nM.
19-mer control RNA (FIG. 6b): the Kd in data set [5] (R2 N/A), in data set [6] (R2 N/A), in data set [7] (R2 N/A), in [8] (R2 N/A), in [9] (R2 N/A) and in data set [10] was more than 500 nM each time. The equilibrium dissociation constant (Kd) in data set [11] is 194 nM.
Consider HCV mIRES RNA (loop III, FIG. 6a), for which the equilibrium dissociation constant (Kd) in [5] (50 mM Tris pH 7.4, 110 mM KCl) is 49 nM; in data set [6] (50 mM Tris pH 7.4, 110 mM KCl), 90 nM; in data set [7] (50 mM Tris pH 7.4, 110 mM KCl), more than 500 nM; in [8] (50 mM Tris pH 7.4, 110 mM KCl), 41 nM; in data set [9] (50 mM Tris pH 7.4, 110 mM KCl), 104 nM; in data set [10] (50 mM Tris pH 7.4, 110 mM KCl), more than 500 nM. Also, the Kd in data set [11] (±10, 10 nM RNA) was found to be 30 nM.
With KKRQR, the Kd in [2] was 104 nM; in [3], more than 500 nM.
For the substance RRRRR, the equilibrium dissociation constant (Kd) is 30 ± 10 nM in data set [2] and 194 nM in data set [3].
The like results for QQQQQ were, in that order, more than 500 nM and more than 500 nM.
